Experimental data published in patent publication US20230088483A1, “USE OF R[…] GENE DERIVED PROTEIN OR FRAGMENT THEREOF” (priority 2020, published 2023).
Like-named read-outs stand apart in the source and are kept apart here.

System: SARS-CoV-2 (C-Tan-nCoV Wuhan strain 01)
Type: cell-based
Settings: Vero cells; for Ct value: 100 PFU/well, medicine added 2 h after infection, supernatant at 24 h, qRT-PCR target ORF1a/b, control group Ct 22.6

B1: Novaferon: Recombinant cytokine gene derived protein, an analog of interferon (SEQ ID NO: 1); applicant's product, Genova Biotech (Qingdao) Co., Ltd. (protein)
chain: CNLSQTHSLGSKRTLMLLAQMGKISLFSCLKDRHDFEFPQEEFDGNQFQKAQAISVLHELIQQTFNLFSTKESSAAWDEGLLDKFRTELYRQLNDLEACMMQEVGVEETPLMNADSILAVKKYFQRITLYLMEKKYSPCAWEVVRVEIMRSLSFSTNLQKRLRGKD
modifications: Amino Acid Sequences Synthesized by Chemical Means
**Q.** How did the Ct value (Novaferon 0.001 ng/mL) turn out when B1 was run?
**A.** The Ct value was 22.645.

**Q.** What about the Ct value (Novaferon 0.01 ng/mL) of the same molecule?
**A.** The Ct value was 22.685.

**Q.** What about the Ct value (Novaferon 0.1 ng/mL) of the same molecule?
**A.** Its Ct value is 22.815.

**Q.** What about the Ct value (Novaferon 1 ng/mL) of the same molecule?
**A.** The Ct value was 23.665.

**Q.** And the Ct value (Novaferon 10 ng/mL)?
**A.** Its Ct value is 29.025.

**Q.** What about the Ct value (Novaferon 100 ng/mL) of the same molecule?
**A.** Its Ct value is 27.625.

**Q.** And the “cytopathic effect (CPE)” value (medicine concentration 10 ng/mL)?
**A.** Its value is “no obvious cytopathic effect”.

**Q.** And the “cytopathic effect (CPE)” value (medicine concentration 100 ng/mL)?
**A.** Its value is “no obvious cytopathic effect”.

**Q.** And the “half maximal inhibitory concentration IC50 for the SARS-CoV-2 in vitro” value (preliminary calculation from inhibition rates based on Ct values)?
**A.** The value was 1.02 ng/mL.
